The target of this assay is MR1-restricted antigen synthesized by S. Typhimurium and highly abundant in that microbe peptide on MR1 (human). Description: T cell clone or line.
Where [1] appears, read: chains alpha TRAV1-2 TRAJ33 CDR3:beta TRBV3-1 TRBJ2-2 CDR3.

B1: 450B9 (peptide)
chain 1: CAVMDSNYQLI
chain 2: CASTPSGEFSEAF
B1 gave a geometric MFI (chains alpha TRAV1-2 TRAJ33 CDR3:beta TRBV6-1 TRBJ1-1 CDR3) of 2520.

B2: 450A9 (peptide)
chain 1: CAVRDSNYQLI
chain 2: CSAREVEGTYEQY
In turn, B2 yielded a geometric MFI (chains alpha TRAV1-2 TRAJ33 CDR3:beta TRBV20-1 TRBJ2-7 CDR3) of 2030.

B3: 403A9 (peptide)
chain 1: CAVVDSNYQLI
chain 2: CSARDGGEAYNEQF
Turning to B3, for the setting “chains alpha TRAV1-2 TRAJ33 CDR3:beta TRBV20-1 TRBJ2-1 CDR3”, the geometric MFI amounted to 1600.

B4: D0033A2 (peptide)
chain 1: CAVTDSNYQLI
chain 2: CASSQAETELNTGELF
Turning to B4, the geometric MFI under setting [1] was found to be 2480.

B5: 427D8-2 (peptide)
chain 1: CAVMDSNYQLI
chain 2: CASSLLRQGTEKLF
For B5, the geometric MFI (chains alpha TRAV1-2 TRAJ33 CDR3:beta TRBV5-1 TRBJ1-4 CDR3) worked out at 3440.

B6: 571F3-2 (peptide)
chain 1: CAVRDSNYQLI
chain 2: CASSEASGGTDTQY
Take B6: the geometric MFI (chains alpha TRAV1-2 TRAJ33 CDR3:beta TRBV6-4 TRBJ2-3 CDR3) was determined as 2760.

B7: D0033A6 (peptide)
chain 1: CAVVDSNYQLI
chain 2: CASSHSSGTGGNEQF
As to B7, the geometric MFI (chains alpha TRAV1-2 TRAJ33 CDR3:beta TRBV4-2 TRBJ2-1 CDR3) is 2620.

B8: D0033A10 (peptide)
chain 1: CAVTDSNYQLI
chain 2: CASSSGLEVTGELF
As for B8, the geometric MFI under setting [1] amounted to 2130.

(Values after PMC7541710.)
